Patent publication US20200268855

Molecular target: T1, ALDH1A2-His6 (UniProt O94788)
T1 sequence: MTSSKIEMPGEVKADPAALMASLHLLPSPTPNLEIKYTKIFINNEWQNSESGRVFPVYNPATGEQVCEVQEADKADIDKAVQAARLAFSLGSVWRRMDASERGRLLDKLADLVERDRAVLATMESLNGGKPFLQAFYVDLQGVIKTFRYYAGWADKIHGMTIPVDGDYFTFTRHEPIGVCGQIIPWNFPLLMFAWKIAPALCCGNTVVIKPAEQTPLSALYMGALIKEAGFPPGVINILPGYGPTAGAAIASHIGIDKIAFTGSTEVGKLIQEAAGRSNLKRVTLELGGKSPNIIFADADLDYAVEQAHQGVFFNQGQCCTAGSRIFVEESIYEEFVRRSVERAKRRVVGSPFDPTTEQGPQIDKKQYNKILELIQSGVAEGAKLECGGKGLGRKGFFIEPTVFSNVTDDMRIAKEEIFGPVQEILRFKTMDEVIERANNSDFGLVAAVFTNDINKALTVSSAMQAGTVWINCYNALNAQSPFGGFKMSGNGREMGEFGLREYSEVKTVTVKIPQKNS

Substance: human UBE3A protein
- ubiquitination of ALDH1A2 in the reconstituted bacterial ubiquitination system (immunoblot): the ALDH1A2 protein was highly ubiquitinated in the presence of UBE3A protein
